Legend:
collagen [1] = assay: Collagen immunofluorescent staining of wound site in wild-type and AIMP1-deficient mice; assay type: in vivo, mouse; conditions: WT and AIMP1-/- mice; 4 μg applied on wound site twice a day until 3 days after wounding; FIG. 3
Text: By the gene trap method known in the art (Zambrowicz, B. P., et al., Nature 392:608-611, 1998; Kim J Y et al., Proc. Natl. Acad. Sci. USA 99:7912-7916, 2002), a mutation in the AIMP1 gene of a male C57BL6 mouse was induced to prepare a AIMP1 gene deficient homozygous mouse (AIMP1^−/− mouse, Ho) (Park S. G. et al., Am. J. Pathol., in press: 2005). Then, on the back of each of the 8-week-old homozygous mouse and wild-type mouse (AIMP1^+/+ mice, WT), a circular cut-off window with a diameter of 0.5 cm was made with scissors. The wound site was left to stand without dressing. 4 μg of the AIMP1 prepared in Reference Example 1 was dissolved in 5 μl of 20% glycerol-containing PBS and applied on the wound site. The AIMP1 applied twice a day until 3 days after wounding. A control group (AIMP1-untreated group) was treated with 20% glycerol-containing PBS. Then, the tissue of the wound site was isolated using scissors and fixed in 4% paraformaldehyde overnight. The fixed tissue was washed with PBS, incubated in 30% sucrose solution for 4 hours, and then mixed with an OCT (optimal cutting temperature) compound and frozen at −70° C.
6 μm of the frozen section was attached to a silane-coated slide and washed with PBS. Then, the slide was blocked with PBS containing 0.1% tween 20 and 1% non-fat dry milk and allowed to react with an anti-collagen I antibody (Abcam) at 37° C. for 2 hours. […]

collagen [2] = assay: Western blot analysis of collagen (anti-collagen I antibody) in foreskin fibroblast cells; assay type: cell-based
Description: (§1) In order to measure the collagen transcript RNA induced by the AIMP1, foreskin fibroblast cells (5×10^4 cells/well; obtained from MTT; accession number: MC1232) were cultured in 10% serum-containing DMEM medium on a 6-well plate for 12 hours and then cultured in serum-free medium for about 3 hours. Next, the cultured cells were treated with the AIMP1 (SEQ ID NO: 1) at varying AIMP1 concentrations of 0, 20, 50, 100 and 200 nM for 6 hours (RT-PCR) or 12 hours (Western blot).
The cells treated with the AIMP1 at varying AIMP1 concentrations in Example <1-1> were collected and lysed in a cell lysis buffer (50 mM HEPES, pH 7.5, 150 mM NaCl, 10% glycerol, 5 mM EGTA, 1 mM sodium orthovanadate, 10 mM NaF, 12 mM b-glycerophosphate, 1 mM DTT, 1 mM PMSF, […] aprotinin, and 1% NP40). Lysed cells were centrifuged at 26,000 g for 15 minutes and the cell extract was isolated. 30 μg of the cell extract was separated by 8% SDS-PAGE and immunoblotted with an anti-collagen I antibody (Abcam) according to any conventional method known in the art. As a control group, an anti-tubulin antibody (Sigma) was used.
(§2) Foreskin fibroblast cells (5×10^4 cells/well) were cultured in 10% serum-containing DMEM medium on a 6-well plate for 12 hours, and then, cultured in serum-free medium for about 3 hours. Next, the cultured cells were treated with 100 nM of the AIMP1 at various time intervals (0, 2, 4, 6, 12 and 24 hours).
Foreskin fibroblast cells (5×10^5 cells/well) were cultured in 10% serum-containing DMEM medium on a 6-well plate for 48 hours and then cultured in serum-free medium for about 3 hours. Next, the cultured cells were treated with each of the AIMP1 (SEQ ID NO: 1) and the AIMP1 N-terminal fragments (SEQ ID NOS: 2 and 12) at a concentration of 200 nM for 12 hours. As a control group, cells without treatment were used.
The cells treated with each of the AIMP1 and its N-terminal fragments and the control cells were collected at the indicated time and subjected to Western blot analysis in the same manner as in Example <1-3>.

KGF = assay: RT-PCR analysis of KGF expression in foreskin fibroblast cells; assay type: cell-based; conditions: 100 nM for 2 hours, FIG. 4
Description: From foreskin fibroblast cells treated with 100 nM of the AIMP1 for 2 hours, the total RNA was extracted in the same manner as described in Example <1-2>. Then, the extract was amplified by RT-PCR using KGF-specific primers (SEQ ID NO: 8 and SEQ ID NO: 9). The control groups were amplified using cyclin D-specific primers (SEQ ID NO: 10 and SEQ ID NO: 11) and GADPH-specific primers (SEQ ID NO: 6 and SEQ ID NO: 7), respectively. The PCR reaction consisted of: predenaturation of the template DNA at 95° C. for 5 min, followed by 25 cycles of 1 min at 95° C., 1 min at 52° C. and 1 min at 72° C., and then, a final extension for 5 min at 72° C.
(§3) Foreskin fibroblast cells (5×10^4 cells/well) were cultured in 10% serum-containing DMEM medium on a 6-well plate about 12 hours, and then, cultured in serum-free medium for about 3 hours. Then, the cultured cells were treated with 100 nM of the N-terminal and C-terminal fragments of the AIMP1 prepared in Reference Example 1, at various time intervals of 0, 1, 2, 4, and 6 hours. Then, RT-PCR was performed in the same manner as in Example <1-2> using each of collagen-specific primers (SEQ ID NO: 4 and SEQ ID NO: 5), KGF-specific primers (SEQ ID NO: 8 and SEQ ID NO: 9) and GADPH-specific primers (SEQ ID NO: 6 and SEQ ID NO: 7).
(§4) Foreskin fibroblast cells (5×10^4 cells/well) were cultured in 10% serum-containing DMEM medium on a 6-well plate for 12 hours and then cultured in serum-free medium for about 3 hours. Next, the cultured cells were treated with each of the N-terminal fragments (SEQ ID NOS: 12, 13 and 14) and C-terminal fragment (SEQ ID NO: 15) of AIMP1 prepared in Reference Example 2 at an concentration of 100 nM for 2 hours and 6 hours, respectively. The treated cells were subjected to RT-PCR using collagen-specific primers (SEQ ID NOS: 4 and 5), KGF-specific primers (SEQ ID NOS: 8 and 9) and GADPH-specific primers (SEQ ID NOS: 6 and 7) in the same manner as in Example <1-2>.

collagen [3] = assay: RT-PCR analysis of collagen transcript in foreskin fibroblast cells; assay type: cell-based
Description: as §1
The cells treated with the AIMP1 at varying concentrations in Example <1-1> were collected and dissolved in TRIzol (invitrogen). 10% by weight of chloroform was added to the cell lysate, and mixed well. The mixture was centrifuged at 12,000 g for 15 minutes and the supernatant was collected. Ethanol was added to the collected supernatant to a final concentration of 70%. Then, the supernant was centrifuged at 26,000 g for 5 minutes and the precipitant was collected. The precipitant was dried and dissolved in sterilized distilled water, and the total RNA was extracted. 3 μg of the total RNA was used to prepare cDNA. Then, the cDNA was amplified by PCR using collagen-specific primers (SEQ ID NO: 4 and SEQ ID NO: 5). At this time, for use as a control group, the cDNA was subjected to PCR using GADPH-specific primers (SEQ ID NO: 6 and SEQ ID NO: 7). The PCR reaction consisted of: pre-denaturation of the template DNA at 95° C. for 5 min, followed by 25 cycles of 1 min at 95° C., 1 min at 52° C. and 1 min at 72° C., and then a final extension for 5 min at 72° C.
as §2, §3, §4

B1: AIMP1: ARS-interacting multi-functional protein 1, a protein consisting of 312 amino acids (SEQ ID NO: 1) (protein, listed as Homo sapiens)
chain: MANNDAVLKRLEQKGAEADQIIEYLKQQVSLLKEKAILQATLREEKKLRVENAKLKKEIEELKQELIQAEIQNGVKQIAFPSGTPLHANSMVSENVIQSTAVTTVSSGTKEQIKGGTGDEKKAKEKIEKKGEKKEKKQQSIAGSADSKPIDVSRLDLRIGCIITARKHPDADSLYVEEVDVGEIAPRTVVSGLVNHVPLEQMQNRMVILLCNLKPAKMRGVLSQAMVMCASSPEKIEILAPPNGSVPGDRITFDAFPGEPDKELNPKKKIWEQIQPDLHTNDECVATYKGVPFEVKGKGVCRAQTMSNSGIK
- amount of collagen at wound site (immunofluorescence) (collagen [1]): further increased
- synthesis of collagen, protein levels (Western blot), varying concentrations (collagen [2]; 0, 20, 50, 100 and 200 nM for 12 hours, FIG. 1 bottom): stimulated the synthesis of collagen in fibroblast cells in dose-dependent manners
- synthesis of collagen, protein levels (Western blot), various time intervals (collagen [2]; 100 nM, 0, 2, 4, 6, 12 and 24 hours, FIG. 2 bottom): stimulated the synthesis of collagen
- synthesis of collagen, protein levels (Western blot), compared with cells without treatment (collagen [2]; 200 nM for 12 hours, FIG. 7): more stimulated
- expression of KGF (RT-PCR) (KGF): increased
- synthesis of collagen (RT-PCR), varying concentrations (collagen [3]; 0, 20, 50, 100 and 200 nM for 6 hours, FIG. 1 upper): stimulated the synthesis of collagen in fibroblast cells in dose-dependent manners
- synthesis of collagen (RT-PCR), various time intervals (collagen [3]; 100 nM, 0, 2, 4, 6, 12 and 24 hours, FIG. 2 upper): stimulated the synthesis of collagen in fibroblast cells in time-dependent manners
